Results from the supplement of paper PMC7125110.
± gives the standard error. For some of these results: Fewer inactive variants are shown than the library holds.

B1: glmS ribozyme (parent)
chain: AUAAAAGCGCCAGAACUACAGAAAUGUAGUUGACGAGGAGGAGGUUUAUCGAAUUUUCGGCGGAUGCCUCCAAA

How the values were obtained:
Conditions in all cases: with glucosamine-6-phosphate
glucosamine-6-phosphate [1] = variants of: B1; test: self-cleavage kobs at 40 uM GlcN6P; higher = faster cleavage; RNA array
In short: (§1)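 Sequenced MiSeq chips were the platform: E. coli RNA polymerase transcribed barcoded ribozyme variants on them in situ, and a hybridised Cy3 probe tracked these at 37 °C. After glucosamine-6-phosphate (40 μM to 10 mM) in HEPES/KCl/Mg(OAc)2 buffer was flowed in, tiles were imaged over ~14 h. Signals normalised to baseline and to non-cleaving reference variants were reduced to per-tile medians and fit to one- or two-exponential decays to obtain kobs. kcat and KM were derived through weighted Michaelis–Menten fits across concentrations.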

glucosamine-6-phosphate [2] = variants of: B1; test: self-cleavage kobs at 160 uM GlcN6P; higher = faster cleavage; RNA array
In short: as §1

glucosamine-6-phosphate [3] = variants of: B1; test: self-cleavage kobs at 640 uM GlcN6P; higher = faster cleavage; RNA array
In short: as §1

glucosamine-6-phosphate [4] = variants of: B1; test: self-cleavage kobs at 2500 uM GlcN6P; higher = faster cleavage; RNA array
In short: as §1

glucosamine-6-phosphate [5] = variants of: B1; test: self-cleavage kobs at 10000 uM GlcN6P; higher = faster cleavage; RNA array
In short: as §1

glucosamine-6-phosphate [6] = variants of: B1; test: KM; higher = weaker cofactor use; RNA array
In short: as §1

glucosamine-6-phosphate [7] = variants of: B1; test: kcat; higher = faster cleavage; RNA array
In short: as §1

Variant: A6G G35U
- self-cleavage kobs at 40 uM GlcN6P (glucosamine-6-phosphate [1]): < 1e-05 s⁻¹
- self-cleavage kobs at 160 uM GlcN6P (glucosamine-6-phosphate [2]): < 1e-05 s⁻¹
- self-cleavage kobs at 640 uM GlcN6P (glucosamine-6-phosphate [3]): < 1e-05 s⁻¹
- self-cleavage kobs at 2500 uM GlcN6P (glucosamine-6-phosphate [4]): < 1e-05 s⁻¹
- self-cleavage kobs at 10000 uM GlcN6P (glucosamine-6-phosphate [5]): < 1e-05 s⁻¹

Variant: A6U A15U A36G A52C
- self-cleavage kobs at 40 uM GlcN6P (glucosamine-6-phosphate [1]): < 1e-05 s⁻¹
- self-cleavage kobs at 2500 uM GlcN6P (glucosamine-6-phosphate [4]): < 1e-05 s⁻¹

Variant: A6G C11G A42U
- self-cleavage kobs at 40 uM GlcN6P (glucosamine-6-phosphate [1]): < 1e-05 s⁻¹
- self-cleavage kobs at 2500 uM GlcN6P (glucosamine-6-phosphate [4]): < 1e-05 s⁻¹
- self-cleavage kobs at 10000 uM GlcN6P (glucosamine-6-phosphate [5]): < 1e-05 s⁻¹

Variant: A6U A12G C16U G38A U54A C68A
- self-cleavage kobs at 40 uM GlcN6P (glucosamine-6-phosphate [1]): 8.86e-05 ± 3.6e-05 s⁻¹
- self-cleavage kobs at 640 uM GlcN6P (glucosamine-6-phosphate [3]): 0.000335 ± 0.0001 s⁻¹
- self-cleavage kobs at 2500 uM GlcN6P (glucosamine-6-phosphate [4]): 0.000395 ± 0.00011 s⁻¹
- self-cleavage kobs at 10000 uM GlcN6P (glucosamine-6-phosphate [5]): 8.53e-05 ± 1.8e-05 s⁻¹

Variant: A6U G9C
- self-cleavage kobs at 40 uM GlcN6P (glucosamine-6-phosphate [1]): < 1e-05 s⁻¹
- self-cleavage kobs at 640 uM GlcN6P (glucosamine-6-phosphate [3]): < 1e-05 s⁻¹
- self-cleavage kobs at 10000 uM GlcN6P (glucosamine-6-phosphate [5]): < 1e-05 s⁻¹

Variant: A6C A36G A52G
- self-cleavage kobs at 40 uM GlcN6P (glucosamine-6-phosphate [1]): < 1e-05 s⁻¹
- self-cleavage kobs at 2500 uM GlcN6P (glucosamine-6-phosphate [4]): < 1e-05 s⁻¹
- self-cleavage kobs at 10000 uM GlcN6P (glucosamine-6-phosphate [5]): < 1e-05 s⁻¹

Variant: A6U C16U G32C A42U U57G
- self-cleavage kobs at 40 uM GlcN6P (glucosamine-6-phosphate [1]): < 1e-05 s⁻¹

Variant: A6G A52U C61G
- self-cleavage kobs at 40 uM GlcN6P (glucosamine-6-phosphate [1]): < 1e-05 s⁻¹

Variant: A6G C8G A39C U55C C70A
- self-cleavage kobs at 40 uM GlcN6P (glucosamine-6-phosphate [1]): < 1e-05 s⁻¹
- self-cleavage kobs at 10000 uM GlcN6P (glucosamine-6-phosphate [5]): < 1e-05 s⁻¹

Variant: A36U A53U
- KM (glucosamine-6-phosphate [6]): 148 ± 37 µM

Variant: A6G A12U C61U
- self-cleavage kobs at 40 uM GlcN6P (glucosamine-6-phosphate [1]): < 1e-05 s⁻¹
- self-cleavage kobs at 10000 uM GlcN6P (glucosamine-6-phosphate [5]): < 1e-05 s⁻¹

Variant: A6G A12G A64U C70U
- self-cleavage kobs at 40 uM GlcN6P (glucosamine-6-phosphate [1]): < 1e-05 s⁻¹
- self-cleavage kobs at 10000 uM GlcN6P (glucosamine-6-phosphate [5]): < 1e-05 s⁻¹

Variant: A6C G37U G44U
- self-cleavage kobs at 40 uM GlcN6P (glucosamine-6-phosphate [1]): < 1e-05 s⁻¹

Variant: A6U C16U G38A
- self-cleavage kobs at 40 uM GlcN6P (glucosamine-6-phosphate [1]): < 1e-05 s⁻¹
- self-cleavage kobs at 640 uM GlcN6P (glucosamine-6-phosphate [3]): < 1e-05 s⁻¹
- self-cleavage kobs at 2500 uM GlcN6P (glucosamine-6-phosphate [4]): < 1e-05 s⁻¹

Variant: G66U C70A
- kcat (glucosamine-6-phosphate [7]): 7.35e-05 ± 1.3e-05 s⁻¹
- self-cleavage kobs at 640 uM GlcN6P (glucosamine-6-phosphate [3]): 0.000101 ± 4.5e-05 s⁻¹
- self-cleavage kobs at 2500 uM GlcN6P (glucosamine-6-phosphate [4]): 8.96e-05 ± 3e-05 s⁻¹
- self-cleavage kobs at 10000 uM GlcN6P (glucosamine-6-phosphate [5]): 6.04e-05 ± 2e-05 s⁻¹

Variant: A6C U47C U54A G59A C70U
- self-cleavage kobs at 40 uM GlcN6P (glucosamine-6-phosphate [1]): < 1e-05 s⁻¹

Variant: A6G A14G A39C
- self-cleavage kobs at 40 uM GlcN6P (glucosamine-6-phosphate [1]): < 1e-05 s⁻¹
- self-cleavage kobs at 2500 uM GlcN6P (glucosamine-6-phosphate [4]): 9.9e-05 ± 2.3e-05 s⁻¹
- self-cleavage kobs at 10000 uM GlcN6P (glucosamine-6-phosphate [5]): 0.000209 ± 4.5e-05 s⁻¹

Variant: A6C A48U
- self-cleavage kobs at 40 uM GlcN6P (glucosamine-6-phosphate [1]): < 1e-05 s⁻¹
- self-cleavage kobs at 2500 uM GlcN6P (glucosamine-6-phosphate [4]): < 1e-05 s⁻¹

Variant: A6C G13C A52G
- self-cleavage kobs at 40 uM GlcN6P (glucosamine-6-phosphate [1]): < 1e-05 s⁻¹
- self-cleavage kobs at 10000 uM GlcN6P (glucosamine-6-phosphate [5]): < 1e-05 s⁻¹

Variant: A6U A33C
- self-cleavage kobs at 40 uM GlcN6P (glucosamine-6-phosphate [1]): < 1e-05 s⁻¹
- self-cleavage kobs at 160 uM GlcN6P (glucosamine-6-phosphate [2]): < 1e-05 s⁻¹
- self-cleavage kobs at 640 uM GlcN6P (glucosamine-6-phosphate [3]): < 1e-05 s⁻¹
- self-cleavage kobs at 2500 uM GlcN6P (glucosamine-6-phosphate [4]): < 1e-05 s⁻¹

Variant: A6G A15C A64C
- self-cleavage kobs at 40 uM GlcN6P (glucosamine-6-phosphate [1]): < 1e-05 s⁻¹
- self-cleavage kobs at 2500 uM GlcN6P (glucosamine-6-phosphate [4]): < 1e-05 s⁻¹

Variant: A6C U49G C67U
- self-cleavage kobs at 40 uM GlcN6P (glucosamine-6-phosphate [1]): < 1e-05 s⁻¹
- self-cleavage kobs at 2500 uM GlcN6P (glucosamine-6-phosphate [4]): < 1e-05 s⁻¹

Variant: A6G A33U
- self-cleavage kobs at 40 uM GlcN6P (glucosamine-6-phosphate [1]): < 1e-05 s⁻¹
- self-cleavage kobs at 160 uM GlcN6P (glucosamine-6-phosphate [2]): < 1e-05 s⁻¹
- self-cleavage kobs at 640 uM GlcN6P (glucosamine-6-phosphate [3]): < 1e-05 s⁻¹
- self-cleavage kobs at 2500 uM GlcN6P (glucosamine-6-phosphate [4]): < 1e-05 s⁻¹

Variant: A6G A33C
- self-cleavage kobs at 40 uM GlcN6P (glucosamine-6-phosphate [1]): < 1e-05 s⁻¹
- self-cleavage kobs at 160 uM GlcN6P (glucosamine-6-phosphate [2]): < 1e-05 s⁻¹
- self-cleavage kobs at 640 uM GlcN6P (glucosamine-6-phosphate [3]): < 1e-05 s⁻¹
- self-cleavage kobs at 2500 uM GlcN6P (glucosamine-6-phosphate [4]): < 1e-05 s⁻¹
- self-cleavage kobs at 10000 uM GlcN6P (glucosamine-6-phosphate [5]): < 1e-05 s⁻¹

Variant: A6U G7C C8G G38U
- self-cleavage kobs at 40 uM GlcN6P (glucosamine-6-phosphate [1]): < 1e-05 s⁻¹
- self-cleavage kobs at 640 uM GlcN6P (glucosamine-6-phosphate [3]): < 1e-05 s⁻¹
